Test results as given in the nanobody polyreactivity screen of Harvey et al. (2022).

Assay: yeast display, Sf9 membrane polyspecificity reagent, FACS + sequencing; frameworks hold sequencing errors
How it was run: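 Galactose induction of a Saccharomyces cerevisiae BJ5465 synthetic nanobody display library ran 36–48 hours. The cells were then stained for 1 hour at 4 °C with 10% biotinylated, detergent-solubilized Sf9 membrane reagent, pulled down on streptavidin microbeads and FACS-sorted into low and high (top ~1%) gates on expression and reagent-binding fluorescence. Labels for polyreactivity follow the gate of origin.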

Sequence	polyreactivity (PSR sort gate)
QVQLVESGGGLVQAGGSLRLSCAASGSIFKKYAMGWYRQSPGKERELVAAISSTGGSTKYADSVKGRFTISRDNAKNTVYLQMNSLKPEDTAVYYCAVRYKWPYDYWGQGTQVTVSS	high polyreactivity
QVQLVESGGGLVQAGGSLRLSCAASGFIFSPYAMGWYRQAPGKERELVAAINGGGRTYYADSVKGRFTISRDNAKNTVYLQMNSLKPEDTAVYYCAVDPISQGHMDYWGQGTQVTVSS	low polyreactivity
QFQLVESGGGLVQAGGSLRLSCAASGSTFVPNTMGWYRQAPGIERELVAAITYSGGSTYYADSVKGRFTISRDNAKNTVYLQMHSLKPEDTAVYYCAAEGTTWYYDMDYWGQGTQVTVSS	low polyreactivity
QVQLVESGGGLVQAGGSLRLSCAASGSTFPFNAMGWYRQAPGKEREFVAVINSGGDSTYYADSVKGRFTISRDNAKNTVYLQMNSLKPEDTAVYYCNAEDTRNDYDYWGQGTQVTVSS	low polyreactivity
QVQLVESGGGLVQAGGSLRFSCAASGSTFTTNVMGWYRQAPGKERELVAAISWSSGSTYYADSVKGRFTISRDNAKNTVYLQMNSLKPEDTAVYYCAARLVIFYPYSRYYYWGQGTQVTVSS	high polyreactivity
HVQLVDSGGGIVQAGGSLRLSCAASGSTFYGNAMGWYRQAPGKEMEFVAAISRGGGSTYYADSVKGRFTISRDNAKNTVYVQMNLLKTEDTADFYCAATRYLHPWYYQYYYCGQGTQVTVSS	low polyreactivity
QVQLVESRGGLVQAGGSLRLSCAASGFIFSSYAMGWYRQAHGKERELVAAITSGGSTNYADSVKGRFTISRDNAKNTVYLQMNSLKPEDTAVYYCATVPGGSWFFHWWSTGGDDEYWGQGTQVTVSS	low polyreactivity
QVQLVESGGGLVQAGGSLRLSCAASGRTFQTYAMGWYRQAPGKERELVAAISKSGGGTYYADSVKGRFTISRDNAKNTVYLQMNSLKPEDTAVYYCATAGYHYRAWGGRYDYWGQGTQVTVSS	high polyreactivity
QVQLVESGGGLDQAGGSLRLSCAASGVNAMGWYRQAPGKEREFVAAITSIGGSTYYADSVKGRFTISRDNAKNTVYLQMNRLKPEDTAVYYCNPDSGPVKVSPLYESWGQGTQVTVSS	low polyreactivity
QVQLVESGGGLVQPGGSLRLSCAASGRTFGDYVMGWDREAPGKERELVAVITYRGGSTYYADSVKGRFTISRDNAKNTVHLQMNSLKPEDTAVYYCAAAARAGLKRYYYWGQGTQVTVSS	high polyreactivity
QVQLVESGGGLVQAGGSLRLSCAASGIIFYYNAMGWYRQAPGKERELVAAINDSGNTYYADSVKGRFTISRDNAKNTVYFQMNSLKPEDTAVYYCAADVWKYWGYDYWGQGTQVTVSS	low polyreactivity
QVQLVESGGGLVQAGGSLSLSCAASGFIITRNAMGWYRQAPGKEWEFVARISRSSGSTYYADSVKGRFTISRDNAKITVYLKMKSLTPDDTAVYYCNTRVAGIYGFGSYDDWGQGTQVTVSS	high polyreactivity
QVQLVESGGGLVQAGGSLRLTCAASGRTFIVYAMGWYRQAPGKERELVARISSGSRTSYADSVTGRFTISRDNAKNTVYLQMNSLKPEDTAVYYFAKSRVIKYEFDYWGQGTQVTLSS	low polyreactivity
QVQLVESGGRLVQAGGSRRLSCAGSGSIFHHNAMGSYRQAPGKESELVAAISSRSGNTYYADSVKGRFTISRDNAKNTVYLQMNSLKPEDPAVYYCAAGIRLSYSTYDSWGQGTQVTVSS	high polyreactivity
QVQLVESGGGLVQAGGSLRLSCAASGSTFGSYAMGWYIQAPGKERELVAAISRAGSTYADSVKGRFTISRDNAKNTVYLQMNSLKPEDTAVYYCAKRDNALYYGYDYWGQGTQVTVSS	low polyreactivity
QVQVVESGAGEVQAGGSLRLSCAASGSIFPFNAMGWYRQAPGKERELVAAISVNGGSTYYADSVKGRFTISRDNAKNTVYIQMNSLKPEDTAVYYCNTGGTFLDWVRRPFGFGYWGQGTQVTVSS	low polyreactivity
QVQLVESGGGLVQAGGSLRLSSAASGLIFSVNAMGWYRQAPGKESEMIAAISKSGGRTYYADSVKGRFTISRDNAKNTVYLQMNSLKPEDTAVYYCAKRSRWNYKGYGTCGYYWGQGTQVTVSS	high polyreactivity
QVQLVESGGGLVQAGGSLRLICAASGSTQVYYAMGWYRQAPGKETELVASINHSGARTRYADSVKGRFTISRDNAKNTVYLQMNSLKPEVTAVYYCAAVARSTTYRYNYWGQGTQVTVSS	high polyreactivity
QVQLVESGGGLVQAGGSLRLSCAASGSIFYINAMGWYRQAPGKERELVAAITWRGAGTYYADSVKGRFTISRDNAKNTVYLQMNSLKPEDTAVYYCAADDSPWRVPRNYWGQGTQVTVSS	low polyreactivity
QVQLVESGGGLVQAGGSLRLSCAASGRTFPDNAMGWYRQEPGKERELVAVINWGGTSTYYADSVKGRFTISRDNAKNTFYLQMNSLKPEDTAVYYCAARARYPRVGYNYWGQGTQVTVSS	high polyreactivity
QVQLVESGGGLVQAGGSLRLSFAASGYTFWYYAMGWYRQAPGKERELVARISKRGGSTYYADSVKGRFTISRDNAKNTVYLQMNSLKPEDTEVYYCAADTRQQSHSMDYWGQGTQVTVSS	low polyreactivity
QVQLVESGGGLVQAGGSLRLSCAASGSTFSANAMGWYRQAPGKERELVADISTGGSTKYADSVKGRFTISRDNAKNTVYLQMNSLKPEDTAVYYCAARRRWARGSAIRGYWGQGTQVTVSS	high polyreactivity

Sequence	polyreactivity (PSR sort gate)
QVQLVESGGGLVQAGGSLRLICAASGITFVTYAMGWYRQAPGKERELVAAISRSGGRTYYADSVKGRFTISRDNAKNTVYLQMNSLKPEDTSVYYCAAERKNKYDYWGQGTQVTVSS	high polyreactivity
QVQLVESGGGLVQEGGSLRLSCAASGNIFRINGMGWYRQAPGKERELVATITGNGGSTYYAASVKGRFTISRDNAQNTVYLQMNSLKPEDTAVFYCAAQTTVYIYDYWGQGTQVTVSS	low polyreactivity
QVQLVESGGGLVQAGGSLRLSCAASGSTFAFYAMGWYRQAAGKERELVAAITWDGGTTYYADSVKGRFTLSRDNAKNTVYLQMNSLKPEDTAVYYCASDYAWFSIYDNVPSAPGYDYWGQGTQVTVSS	low polyreactivity
QVQLVDSGGGLVQAGGSLRLSCAASGSILFEYMGWYRQAPGKERELVAAITIRDGGTYYADSVKGRFTISRDNAKNTVYLQMNSLKPEDTAVYYCNADFSGGWRYDYWGQGTQVTVSS	low polyreactivity
QVQLVESGGGLVQAGGSLRLICAASGFTFYRYAMGWYRQAPGKERELVAAITRSGGSTYYADSVKGRFTISRDNAKNTVYLQMNSLKPEDTAVYYCARTYWITNSKFRDYLGAYGGDYWGQGTQVTVSS	high polyreactivity
QVQLVESGVCLVQAGGSLRLSCASSGLIIPPNAMGWYRQPPGKERELVASITRSGGSTYYADSVKGRFTISRDNAKNTVYVQMNSLTPEDTAVYYCAAYLDTSRYGVLYDYWGQGTQVTVSS	low polyreactivity
QVQLVESGGGLVQAGGSLRLTCAASGSTFSYYAMGCYRQAPGKERELVAAISTRGSSTYYADSVKGRFTISRDNAKITVYVQMNSLKPEDTAVYYFAVDQYKYDCFYDYYGYTYGYWGQGTQVTVSS	high polyreactivity
QVQLVESGGGLVQAGGSLRLSCAASGLIFSTYAMGWYRQAPGKERELVAAINSGGGNTYYADSVKGRFTISRDNAKNTVYLQMNSLKPEDTAVYYCNAQWRRHPGIWHYGYWGQGTQVTVSS	low polyreactivity
QVQLVESGGCLVQAGGSLRLSCAASGSIFGVNAMGGYRQPPGKDRELVASITGGDSTNYADSVKGRFTISRDNAKNTVYLQMNSLKPEDTAVYYCAKDHYYRYEEGDYWGLGTQVTVSS	low polyreactivity
QVQLVESGGGLVQAGGSLRLSCAASGSTFGKYAMGWYRQATGKERELVAAITNGGRTNYADSVKGRFTISRDNAMNTVYLQMNSMKPEDTAVYYCNKARYGTDDYDYWGQGTQVTVSS	low polyreactivity
QVQLVESGGGLVQAGGSLRLSCAASGYIFLYYTMGWYRQAPGKERELVAAITIGGGTYYADSVKGRFTISRDNAKNTVYLQMNSLKPEDTAVYYCNADYASYYRYSRPLEMNYWGQGTQVTVSS	low polyreactivity
QVQLVESGGGLVQAGGSLRLSCAASGFIFRWYAMGWYRQAPGKERDLVATISSGGSTYYADSVKGRFTISRDNAMNTFYLQMISLKPEDTAVYYCAARFHYRGALYYYWGQGTQVTVSS	high polyreactivity
QVQLVESGGGLVQAGGSLRLSCAASGSIFSVYVMGWYRQAPGKERELVAAISWSDSDTYYADSVKGRFTISRDNAKNTVYLQMNSLKPEDTAVYYCAAETFDYADYIANGSGEYDYWGQGTQVTVSS	high polyreactivity
QVQLVESGGGLVQAGGSLRLSCAASGFIFKSNAMGWYRQAPGKERELVAAITRSGGRTYYADSVKGRFTISRDNAKNTVYLQMNSLKPEDTAVYYCNAKLYTGSFDYWGQGTQVTVSS	high polyreactivity
QVQLVESGGGLVQAGCSLRLSCAASGFTFQHNAMGWYRQAPGKERELVAAISRGGSTNYADSVKGRFTISRDNAKNTVYLQMNSLKPEDTAVYYCAAYDWRVLWGYDYWGQGTQVTVSS	low polyreactivity
QVQLVASAGGLVQAGGSLRFSCAASGRSFKRYTMGWYRQAPGKERELVAAITKRADRTNYADSVKGRFTISRDNAKNTVYLQMNSLKPEDTAVYYCYADGQNDLPSNGYISYKYDYWGQGTQVTVSS	low polyreactivity
QVQLVESAAGLVQAGGSLRLSCAASGIIFPRNVMGWYRQAPGKERELVAAITYSGGRTYYADSVKGRFTISRDNAKNTVYLQMNSLKPEDTAVYYCNADFRSQPYDYWGQGTQVTVSS	low polyreactivity
QVQLVESGGGLVQAGGSLRLSCAAWSIFYLNAMGLYRQAPGKERELVAAISWGGGSTNYADSVKGRFTISRDNAKNTVYLQMNSLKPEDTAVYYCARTPESLSAREFNYWGQGTEVTVSS	low polyreactivity
QVQLVQSWGGLVQAGGSLRLICAASGSIIAYNAMGWYRQAPGKEREMVAAITISGGSTYYADSVKGRFTISRDNAKNNVYLQMNSLKPEDTAVYYSAAAIPGARSRRSYGKYFYWGQGTQVTVSS	low polyreactivity
QVQLVESGGGLVQAGGSLRLSCAASGYIFVYYAMGWYRQAPGKEREMVAAISSSGDTTYYADSVKGRFTISRDNAKNTVYLQMNSLKPEDTAVYYCAARVRGYSHASNYYWGQGTQVTVSS	high polyreactivity
QVQLVESGGGLVQAGGSLRLSCAASGRIFTTYAMGWYRQAPGKERELVATITTTDTRTYADSVKGRFTISRDNAKNTVYLQMNSLKPEDTAVYYCAKDRLNKGRYYRAASDYWGQGTQVTVSS	low polyreactivity
